Measurements from patent US20230265458A1.

Experiments:
[1] = target: human CD19 (hCD19, hCD19 variant 2), expressed on U87MG cells from the sRRVe-F4-hCD19 vector (human) (UniProt P15391); assay: cell-based or functional assay
[2] = target: truncated human CD19 (hCD19t, CD19t), 323 amino acids, 233 amino acids of the cytoplasmic domain removed (human) (UniProt P15391); assay: cell-based or functional assay

anti-CD19 CAR-T (chimeric antigen receptor against CD19 on T cells)
decrease in cell viability, WST-1 assay, E:T ratio 0.5:1, first day; U87MG cells transfected with sRRVgp-F4-DsRed/sRRVe-F4-hCD19 [1]: 54.9% | decrease in cell viability, WST-1 assay, E:T ratio 1:1, within 1 day; U87MG cells transfected with sRRVgp-F4-DsRed/sRRVe-F4-hCD19 [1]: 25.8% | decrease in cell viability, WST-1 assay, E:T ratio 0.5:1, first day; U87MG cells transfected with sRRVgp-F4-hCD19t/sRRVe-F4-TK [2]: 54.3% | decrease in cell viability, WST-1 assay, E:T ratio 0.5:1, first day; U87MG cells transfected with sRRVgp-F4-yCD/sRRVe-F4-hCD19t [2]: 58.2% | decrease in cell viability, WST-1 assay, E:T ratio 1:1, within 1 day; U87MG cells transfected with sRRVgp-F4-hCD19t/sRRVe-F4-TK [2]: 24.8% | decrease in cell viability, WST-1 assay, E:T ratio 1:1, within 1 day; U87MG cells transfected with sRRVgp-F4-yCD/sRRVe-F4-hCD19t [2]: 20%
